Test results: patent US20190191748A1

What follows are substances tested against moAb G12 conjugated to HRP (peroxidase) (assay: competitive ELISA, gliadin-coated plate, G12-HRP; reference OM719).

Substance	cross-reactivity (CR) = (IC50 of OM719 / IC50 of the variety) x 100
avenins (prolamins) extracted from oat variety OA729	75%
avenins (prolamins) extracted from oat variety OC723	12%
avenins (prolamins) extracted from oat variety OE717	60%
avenins (prolamins) extracted from oat variety OH727	25%
avenins (prolamins) extracted from oat variety OL715	24%
